Source: paper PMC5906708, “Manipulation of Light Signal Transduction Factors as a Means of Modifying Steroidal Glycoalkaloids Accumulation in Tomato Leaves”

T1: SlHY5 (GST-HY5) (Solanum lycopersicum, UniProt Q9SM50 1-158)
T1 sequence: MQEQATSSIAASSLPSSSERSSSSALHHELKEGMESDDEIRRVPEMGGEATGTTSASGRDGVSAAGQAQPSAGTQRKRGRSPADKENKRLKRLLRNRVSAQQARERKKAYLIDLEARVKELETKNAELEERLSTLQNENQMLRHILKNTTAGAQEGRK


Experiments:
SlPIF3 (GST-PIF3) = SlPIF3 (GST-PIF3) (Solanum lycopersicum, UniProt A0A3Q7EQR7 388-618); test: EMSA; LightShift Chemiluminescent EMSA kit, 25 min at 22 C, 6% native PAGE; buffer, salt and pH not stated; settings: protein: recombinant, tags: GST (pGEX-4T-1), chain copies: 2, label: biotin
SlHY5 (GST-HY5) = target: T1, SlHY5 (GST-HY5); test: as above; settings: protein: recombinant, tags: GST (pGEX-4T-1), chain copies: 2, label: biotin

SlPIF3 (GST-PIF3), sequence (A0A3Q7EQR7 entry or part of it): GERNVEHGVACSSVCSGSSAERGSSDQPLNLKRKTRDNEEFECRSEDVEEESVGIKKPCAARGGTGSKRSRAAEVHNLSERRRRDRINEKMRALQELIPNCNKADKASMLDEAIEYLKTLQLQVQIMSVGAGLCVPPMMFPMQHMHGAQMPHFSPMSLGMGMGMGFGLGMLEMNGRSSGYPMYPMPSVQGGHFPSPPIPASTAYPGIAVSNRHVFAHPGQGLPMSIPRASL

Binder	binding result (SlPIF3 (GST-PIF3); blunt)	binding result (SlHY5 (GST-HY5); blunt)	binding result (SlPIF3 (GST-PIF3))	binding result (SlHY5 (GST-HY5))
GAME18 probe (dsDNA) DNA 1: TGATACAACTAAAAGACATACGTTTAAAAAAGCAAATTGATCAAGTCGTTTG DNA 2: CAAACGACTTGATCAATTTGCTTTTTTAAACGTATGTCTTTTAGTTGTATCA	no binding	no binding		
GAME17 promoter G-box probe (dsDNA) DNA 1: CGACATTTGATTGAATTTTAAATTTCACACGTGATACATAGATTGAGATT DNA 2: AATCTCAATCTATGTATCACGTGTGAAATTTAAAATTCAATCAAATGTCG			binds	binds
GAME4 promoter G-box probe (dsDNA) DNA 1: GTTGGGGGGCTAAATTATATTCACGTGATTGTATTTTTTTTTTTAATTGC DNA 2: GCAATTAAAAAAAAAAATACAATCACGTGAATATAATTTAGCCCCCCAAC			binds	binds
GAME11 probe (dsDNA) DNA 1: AAGTAAATTATAAATATACGTGACGAAAACGATCTTTAAAATTCTTTGTA DNA 2: TACAAAGAATTTTAAAGATCGTTTTCGTCACGTATATTTATAATTTACTT	no binding	no binding		
GAME6 probe (dsDNA) DNA 1: ATAATAACACCGTTTCTCTGCTTTAAGCGTGCTTTTTATCTCATAACTAAAAACT DNA 2: AGTTTTTAGTTATGAGATAAAAAGCACGCTTAAAGCAGAGAAACGGTGTTATTAT	no binding	no binding		
GAME12 probe (dsDNA) DNA 1: GAAACGATATAATATACGTGATACAAGTTTATTAATAAATCAATGGCCCA DNA 2: TGGGCCATTGATTTATTAATAAACTTGTATCACGTATATTATATCGTTTC	no binding	no binding		
GAME2 probe (dsDNA) DNA 1: ATCCCAAAAGAGTTGTTAGGTCGTGCACAAAACCCGTTTTCTGCGAAAAT DNA 2: ATTTTCGCAGAAAACGGGTTTTGTGCACGACCTAACAACTCTTTTGGGAT	no binding	no binding		
GAME1 promoter G-box probe (dsDNA) DNA 1: GATTGCTTAAAGAGAGAATACCACGTGATGTCCCCCACACCACACCTGCT DNA 2: AGCAGGTGTGGTGTGGGGGACATCACGTGGTATTCTCTCTTTAAGCAATC			binds	binds
